According to patent US10899824B2 (Polichem S.A., priority 2016, dated 2021):

Key:
HSV-2 [1] = assay: Cell-to-cell infection inhibition (plaque areas, post-adsorption); assay type: cell-based; conditions: Fabs 200 ug/mL, IgGs 100 ug/mL
Procedure: (§1) Post post-adsorption assays have been performed in order to evaluate the contribution of IgGA in inhibiting “cell-to-cell” infection by measuring the plaque areas resulting from infected cells treated or untreated with FabA or IgGA.
(§2) Fabs tested in post-adsorption cell-to-cell infection inhibition assays have also been preliminary used at a concentration of 50 and 200 ug/mL against HSV-1 and HSV-2 tested isolates respectively*.
(§3) IgGs tested in post-adsorption “cell-to-cell” infection inhibition assays have also been preliminary used at a concentration of 25 and 100 ug/mL against HSV-1 and HSV-2 tested isolates respectively*.

HSV-1 [2] = assay: as above; assay type: cell-based; conditions: Fabs 50 ug/mL, IgGs 25 ug/mL
Procedure: as §1, §2, §3

HSV-2 [3] = assay: Quantitative neutralizing activity through indirect immunofluorescence (IIF), InCellAnalyzer count; assay type: cell-based, HSV-2 (MS strain); conditions: IgG1 Fab; Vero E6 cells
Procedure: (§4) The neutralizing activity of Fabs Ex2, Ex2B, Ex2C, Ex2H and Ex2I was evaluated using the InCellAnalyzer automated count system in order to calculate the IC50s of all Fab and obtain a dose-response curve. Several dilutions of the different Fabs were used in order to obtain the dose-response curve. In all sets of neutralization experiments several Fab dilutions were performed since only using a biological compound limit dilution was possible to obtain the exact amount of Fab able to inhibit viral infection.
(§5) Moreover, the same “dose-response” curve allowed the calculation of Fab IC50 which effectively depicts the in vitro Fab potency. The IC50 is the Fab concentration able to reduce by 50% the cell damage due to the infection of cell monolayer with a standard amount of virus (HSV-1 and HSV-2).
(§6) Quantitative Neutralizing Activity Evaluation Through Indirect Immunofluorescence (IIF) Assay Protocol: […]
(§7) Neutralization activity was then assessed by counting the immunofluorescence infection foci through InCellAnalyzer system.
(§8) The number of infection foci in the cell monolayer infected with viruses treated with the different Fab preparations was compared with the foci counted for the virus control (same virus amount)
(§9) The percentage of neutralization was then evaluated and a standard deviation from the mean was calculated as well (the experiment was performed in triplicate)

HSV-2 [4] = assay: Syncytia formation evaluation (qualitative neutralization assay); assay type: cell-based, HSV-2 (MS strain)
Procedure: (§10) Purified Fabs (Ex2(G2), Ex2B(G2), Ex2C(G2), Ex2H(G2) and Ex2I (G2) were pre-incubated (10 μg/mL) with a standard amount of HSV-1 or HSV-2 isolates. Appropriate experimental controls were also included. The different “infection-mix” was used to infect Vero E6 cells (adsorption 2 hours before change of medium).
(§11) After twenty hours, the cell monolayers were Fixed and Permeabilized with crystal violet containing solution allowing first a qualitative evaluation of Fabs biological activities against both HSV-1 and HSV-2 isolates (procedure described in the Materials and Methods section). The reduction of syncytia formation was assessed by bright field phase contrast optical microscopy. As already stated, this assay allowed a first evaluation of Fab potencies.
(§12) The qualitative assays (described in the Materials and Methods section) were performed on IgG1 format of selected anti-HSV-1 and 2 Fabs (FIG. 11).
(§13) In order to evaluate the potency of Fab Ex2, a qualitative assay using different dilutions was performed. Three different concentrations of Ex2 (10 μg/ml, 5 μg/ml and 2.5 μg/ml) were tested against HSV-1 and 2 through the syncytia formation assay.
(§14) Syncytia Formation Evaluation Through Bright Field Phase Contrast Optical Microscope Protocol: […]
(§15) The reduction of syncytia formation was assessed by bright field phase contrast optical microscope. […]

HSV-2 [5] = assay: Plaque reduction assay; assay type: cell-based, HSV-2 (MS strain); conditions: due to very high potency
Procedure: (§16) Dose-response quantitative assay: the capability of Fab Ex2 to inhibit HSV infection was assessed by evaluating the presence of lysis plaques on cell monolayer due to HSV infection in the presence or in the absence of Fab Ex2. To confirm the IIF neutralization data, a plaque reduction assay was performed as quantitative evaluation.
(§17) Quantitative Neutralizing Activity Evaluation Through Plaque Reduction Assay Protocol:
(§18) 7×10^5 Vero cells/well were seeded in a 6-wells plate and grown in the appropriate complete medium supplemented with 10% FCS. Experiment was performed with cells at 100% confluence.
(§19) HSV-1 and HSV-2 viral stocks dilution (−5 and −4 respectively) were pre-incubated with purified Fab of interest at different concentrations (5, 2.5 and 1 μg/mL) in a final volume of 800 μL of complete DMEM, for 1 h at 37° C. and 5% CO2.
(§20) Experimental controls were added as well.
(§21) After washing the cells with a PBS 1× solution, viral solutions were added to the monolayers and incubated for 2 h at 37° C. and 5% CO2 for adsorption. […]
(§22) Neutralization activity was then assessed by counting the plaque forming units (PFU). In particular, the number of PFU in the cell monolayer infected with Fab-treated viruses was compared with the PFU counted for the virus control (same virus amount).

HSV-1 [6] = assay: Plaque reduction assay; assay type: cell-based, HSV-1 (HF strain); conditions: 1 μg/mL
Procedure: as §16, §17, §18, §19, §20, §21, §22

HSV-1 [7] = assay: Syncytia formation evaluation (qualitative neutralization assay); assay type: cell-based, HSV-1 (HF strain)
Procedure: as §10, §11, §12, §13, §14, §15

HSV-1 [8] = assay: Quantitative neutralizing activity through indirect immunofluorescence (IIF), InCellAnalyzer count; assay type: cell-based, HSV-1 (HF strain); conditions: IgG1 Fab; Vero E6 cells
Procedure: as §4, §5, §6, §7, §8, §9

B1: Ex2: human monoclonal Fab, VH SEQ ID NO.1 and VL SEQ ID NO.2, IgG2 Fab converted to IgG1 (antibody, listed as Homo sapiens, V domains shown)
VH: LESGGGVVQPGRSLRLSCAASGFTFTTFAMHWVRQAPGKGLEWLAFISYDGSNKYYADSVKGRFTISRDNSKNTLYLQMNSLRAEDTSIYYCAREVWNYADYWGQGALVTVSS
VL: ELTQSPGTLSSSPGHRATLSCKASAPLGSNHMAWYQQKPGQAPRLLIYGASTRATGVPARFTGSGSGTDFTLTISSLQPEDFATYYCQQANSFPRTFGQGTKVEIK
modifications: IgG1 constant regions
HSV-2 [1]
  inhibition of plaque areas (cell-to-cell infection), HSV-2: inhibits
HSV-1 [2]
  inhibition of plaque areas (cell-to-cell infection), HSV-1: inhibits
HSV-2 [3]
  HSV-2 (IC50 μg/mL ± CI 95%): 0.2 (0.19 ± 0.23) μg/mL
HSV-2 [4]; 10 μg/ml, 5 μg/ml and 2.5 μg/ml, very low concentrations
  inhibition of HSV-2 infection (syncytia formation assay): completely inhibit
HSV-2 [4]; IgG1 converted Fabs
  neutralizing potency of IgG1 format compared to IgG2 format, HSV-2: increased potency
HSV-2 [5]
  dose-response effect in HSV-2 plaque neutralization assay: a dose-response effect could not be measured
HSV-1 [6]
  HSV-1 plaque formation measured as PFU: inhibited
HSV-1 [7]; 10 μg/ml, 5 μg/ml and 2.5 μg/ml, dose-dependent
  inhibition of cellular disruption and syncytia formation, HSV-1: strongly inhibit
HSV-1 [7]; IgG1 converted Fabs
  neutralizing potency of IgG1 format compared to IgG2 format, HSV-1: increased potency
HSV-1 [8]
  HSV-1 (IC50 μg/mL ± CI 95%): 0.7 (0.44 ± 1.21) μg/mL
